Biological target: SIRPg (UniProt Q9P1W8)
Experiment: SPR (BIAcore X-100); ratio of the affinity for SIRPa to that for SIRPg

Chain of UniProt Q9P1W8 (Q9P1W8 29-360 limits assumed): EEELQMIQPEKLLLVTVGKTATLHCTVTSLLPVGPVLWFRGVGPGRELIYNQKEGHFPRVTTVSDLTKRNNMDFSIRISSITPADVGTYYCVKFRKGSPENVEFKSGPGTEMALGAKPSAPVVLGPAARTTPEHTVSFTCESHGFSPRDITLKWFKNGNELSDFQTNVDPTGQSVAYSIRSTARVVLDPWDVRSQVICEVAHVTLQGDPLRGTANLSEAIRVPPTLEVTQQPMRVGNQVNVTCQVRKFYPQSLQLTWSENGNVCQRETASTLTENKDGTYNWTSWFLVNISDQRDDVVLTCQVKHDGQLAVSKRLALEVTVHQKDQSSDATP

- SIRPa/SIRPg亲和力比值: < 1
B1: KWAR23 (antibody, from another filing, V domains shown)
VH: EVQLQQSGAELVKPGASVKLSCTASGFNIKDYYIHWVQQRTEQGLEWIGRIDPEDGETKYAPKFQDKATITADTSSNTAYLHLSSLTSEDTAVYYCARWGAYWGQGTLVTVSS
VL: QIVLTQSPAIMSASPGEKVTLTCSASSSVSSSYLYWYQQKPGSSPKLWIYSTSNLASGVPARFSGSGSGTSYSLTISSMEAEDAASYFCHQWSSYPRTFGAGTKLELK
